Source: the Immune Epitope Database (IEDB)

biological target: HLA-A*33:01; assay: IEDB peptide-MHC binding, purified MHC/competitive/radioactivity; filed as Kd, often an IC50 or EC50 that approximates it; ≥ and ≤ were set here for values at or beyond the usual limits of such assays; conditions: source organism: Vaccinia virus Copenhagen

| Sequence | Kd |
| --- | --- |
| YLLVKWYKK | 30.5 nM |

same assay, conditions: source organism: Vaccinia virus WR

| Sequence | Kd |
| --- | --- |
| VIEDITFLR | 420 nM |
| TAVCMKCFK | 4460 nM |
| GLSETGFMR | 155 nM |
| DLVKSSFVK | 905 nM |
| NFPQHVITK | 8920 nM |
| LFVKKMLPK | ≥ 33200 nM |
| FVKKFGLCNY | ≥ 45100 nM |
| YSHLLPTQR | 892 nM |
| EILKINSVK | 549 nM |
| SAKQLRTRIR | 17300 nM |
| FSKSTSPTR | 387 nM |
| FSKNILKYY | ≥ 77700 nM |
| GFMRFFQLLR | 86.3 nM |
| QAIEPSGNNY | ≥ 70000 nM |
| ETKITFALKK | 3200 nM |
| KSDAKRNSK | ≥ 77700 nM |
| PLYIDISDVK | ≥ 56300 nM |

| Sequence | Kd |
| --- | --- |
| LFKRERDAIK | 8280 nM |
| ILTYNKTSK | ≥ 20100 nM |
| SMNVAVIDK | 7080 nM |
| GTSNWTGNY | ≥ 77700 nM |
| DLVKSYSLIR | 579 nM |
| DFRNRYEDY | 96.4 nM |
| LLIWAYLSK | ≥ 37100 nM |
| RQTVSRFKK | 6560 nM |
| AVRYYDGNIY | ≥ 70000 nM |
| LSSKGLACYR | 47 nM |
| HSVFKGFSDK | 14600 nM |
| ILSYIYSEIK | ≥ 70000 nM |
| CAGVIEYAK | 1190 nM |
| TLDQLEDSEY | ≥ 40300 nM |
| QTCAGVIEY | ≥ 77700 nM |
| ILHAYCGIK | ≥ 33800 nM |
| FINFFNLLAK | 427 nM |

biological target: HLA-A*31:01; assay: as above; conditions: source organism: Dengue virus 1 Singapore/S275/1990

| Sequence | Kd |
| --- | --- |
| RWLWGFLSR | 1.45 nM |

same assay, conditions: source organism: Dengue virus 2 Jamaica/1409/1983

| Sequence | Kd |
| --- | --- |
| TIGTTHFQR | 14.3 nM |
| WTLMYFHRR | 1.49 nM |
| NMISRMLINR | 18 nM |
| LMCHATFTMR | 7.31 nM |

same assay, conditions: source organism: Dengue virus 3 Martinique/1243/1999

| Sequence | Kd |
| --- | --- |
| MSAAVKDER | 32.4 nM |
| AIWYMWLGAR | 42.3 nM |

same assay, conditions: source organism: Dengue virus 3 Singapore/8120/1995

| Sequence | Kd |
| --- | --- |
| GSQLAKRFSR | 54.4 nM |

same assay, conditions: source organism: Dengue virus 4 Dominica/814669/1981

| Sequence | Kd |
| --- | --- |
| KAKIFTPEAR | 2.85 nM |

same assay, conditions: source organism: Lassa virus Josiah

| Sequence | Kd |
| --- | --- |
| ICKMPLPTK | 19800 nM |

same assay, conditions: source organism: Mammarenavirus guanaritoense

| Sequence | Kd |
| --- | --- |
| VTEFRRTAIH | 10700 nM |
| TMEIEDQEYH | ≥ 70000 nM |

same assay, conditions: source organism: Mammarenavirus tacaribeense

| Sequence | Kd |
| --- | --- |
| NCKCCWFADK | 12100 nM |

same assay, conditions: source organism: SARS coronavirus Tor2

| Sequence | Kd |
| --- | --- |
| ATNNVFRLK | 2.57 nM |
| MSYYCKSHK | 18.9 nM |
| IIMRCWLCWK | 14.4 nM |
| ASGNLLLDK | 13500 nM |
| VVQRCASNK | 8260 nM |
| LFCLLNRYFR | 12.9 nM |
| SASAFFGMSR | 9.48 nM |
| SVKSFEIDK | 1110 nM |
| MQTMLFTMLR | 9.75 nM |
| RLISMMGFK | 104 nM |
| QMAPVSAMVR | 1020 nM |
| SLRCGACIRR | 16.3 nM |
| QQVVDADSK | ≥ 77900 nM |
| AVHECFVKR | 39 nM |
| VVSTGYHFR | 1.69 nM |
| LLFQLCTFTK | 197 nM |
| AQPLPQRQK | ≥ 53200 nM |

same assay, conditions: source organism: Vaccinia virus Copenhagen

| Sequence | Kd |
| --- | --- |
| YLLVKWYKK | 12 nM |

same assay, conditions: source organism: Vaccinia virus WR

| Sequence | Kd |
| --- | --- |
| VIEDITFLR | 27.6 nM |
| TAVCMKCFK | 448 nM |
| GLSETGFMR | 85.5 nM |
| DLVKSSFVK | 94.2 nM |
| NFPQHVITK | 11600 nM |
| LFVKKMLPK | 1440 nM |
| FVKKFGLCNY | 12200 nM |
| YSHLLPTQR | 23 nM |
| EILKINSVK | 2080 nM |
| SAKQLRTRIR | 1100 nM |
| FSKSTSPTR | 20.6 nM |
| FSKNILKYY | 16300 nM |
| GFMRFFQLLR | 53.7 nM |
| QAIEPSGNNY | 3440 nM |
| ETKITFALKK | 8270 nM |
| KSDAKRNSK | 1850 nM |
| PLYIDISDVK | 9500 nM |

| Sequence | Kd |
| --- | --- |
| LFKRERDAIK | 1430 nM |
| ILTYNKTSK | 1620 nM |
| SMNVAVIDK | 612 nM |
| GTSNWTGNY | ≥ 77900 nM |
| DLVKSYSLIR | 173 nM |
| DFRNRYEDY | ≥ 77900 nM |
| LLIWAYLSK | 11200 nM |
| RQTVSRFKK | 13.1 nM |
| AVRYYDGNIY | ≥ 70000 nM |
| LSSKGLACYR | 6.87 nM |
| HSVFKGFSDK | 1420 nM |
| ILSYIYSEIK | ≥ 37000 nM |
| CAGVIEYAK | 2220 nM |
| TLDQLEDSEY | 14400 nM |
| QTCAGVIEY | 18900 nM |
| ILHAYCGIK | 2620 nM |
| FINFFNLLAK | 1820 nM |

biological target: HLA-A*11:01; assay: as above; conditions: source organism: Dengue virus 1 Singapore/S275/1990

| Sequence | Kd |
| --- | --- |
| GLAMGIMILK | 69.8 nM |

same assay, conditions: source organism: Dengue virus 2 Jamaica/1409/1983

| Sequence | Kd |
| --- | --- |
| GVFTTNIWLK | 40.7 nM |
| MANEMGFLEK | 519 nM |

same assay, conditions: source organism: Dengue virus 3 Martinique/1243/1999

| Sequence | Kd |
| --- | --- |
| MILLTMKNK | 1200 nM |
| SSMINGVVK | 12.9 nM |
| KVTEVRGYTK | 201 nM |

same assay, conditions: source organism: Dengue virus 4 Philippines/H241/1956

| Sequence | Kd |
| --- | --- |
| GLSSRATWAK | 164 nM |
| VASAGISYK | 37.4 nM |
| MVTFKVPHAK | 251 nM |

same assay, conditions: source organism: Lassa virus Josiah

| Sequence | Kd |
| --- | --- |
| ICKMPLPTK | 712 nM |

same assay, conditions: source organism: Mammarenavirus guanaritoense

| Sequence | Kd |
| --- | --- |
| TMEIEDQEYH | ≥ 69700 nM |

same assay, conditions: source organism: Mammarenavirus tacaribeense

| Sequence | Kd |
| --- | --- |
| NCKCCWFADK | ≥ 69700 nM |

same assay, conditions: source organism: Murray valley encephalitis virus (strain MVE-1-51)

| Sequence | Kd |
| --- | --- |
| VQTKPGIFK | 435 nM |

same assay, conditions: source organism: SARS coronavirus Tor2

| Sequence | Kd |
| --- | --- |
| MSYYCKSHK | 78.9 nM |
| IIMRCWLCWK | 0.426 nM |
| ASGNLLLDK | 29.8 nM |
| VVQRCASNK | 639 nM |
| LFCLLNRYFR | 550 nM |
| SASAFFGMSR | 11.9 nM |
| SVKSFEIDK | 137 nM |
| MQTMLFTMLR | 11.2 nM |
| RLISMMGFK | 22.2 nM |
| QMAPVSAMVR | 1080 nM |
| SLRCGACIRR | 963 nM |
| QQVVDADSK | ≥ 26300 nM |
| AVHECFVKR | 440 nM |
| VVSTGYHFR | 8.55 nM |
| LLFQLCTFTK | 16.3 nM |
| AQPLPQRQK | 879 nM |

same assay, conditions: source organism: Vaccinia virus Copenhagen

| Sequence | Kd |
| --- | --- |
| YLLVKWYKK | 189 nM |

same assay, conditions: source organism: Vaccinia virus WR

| Sequence | Kd |
| --- | --- |
| VIEDITFLR | 54.6 nM |
| TAVCMKCFK | 10.2 nM |
| GLSETGFMR | 2710 nM |
| DLVKSSFVK | 127 nM |
| NFPQHVITK | 2050 nM |
| LFVKKMLPK | 239 nM |
| FVKKFGLCNY | 15100 nM |
| YSHLLPTQR | 1170 nM |
| EILKINSVK | 1540 nM |
| SAKQLRTRIR | ≥ 45500 nM |
| FSKSTSPTR | 12300 nM |
| FSKNILKYY | ≥ 28900 nM |
| GFMRFFQLLR | 937 nM |
| QAIEPSGNNY | 4820 nM |
| ETKITFALKK | 93.1 nM |
| KSDAKRNSK | 887 nM |
| PLYIDISDVK | 9170 nM |

| Sequence | Kd |
| --- | --- |
| LFKRERDAIK | ≥ 69800 nM |
| ILTYNKTSK | 1260 nM |
| SMNVAVIDK | 0.278 nM |
| GTSNWTGNY | 1.06 nM |
| DLVKSYSLIR | 6720 nM |
| DFRNRYEDY | 7930 nM |
| LLIWAYLSK | 101 nM |
| RQTVSRFKK | 40.7 nM |
| AVRYYDGNIY | 272 nM |
| LSSKGLACYR | 43.8 nM |
| HSVFKGFSDK | 13.5 nM |
| ILSYIYSEIK | 62.1 nM |
| CAGVIEYAK | 192 nM |
| TLDQLEDSEY | 1710 nM |
| QTCAGVIEY | 134 nM |
| ILHAYCGIK | 582 nM |
| FINFFNLLAK | 0.273 nM |
